This is an account of results in patent publication US6706762, “Methods for the use of inhibitors of co-repressors for the treatment of neoplastic diseases” (The Salk Institute for Biological Studies).

One data set has as its target RARα/RXRα heterodimer (UniProt P10276;P19793 P10276:1-462,P19793:1-462). The experiment in a line: EMSA; with GST-SMRT-IDII; SMRT dissociated by ATRA; 100 mM KCl, 16.7 mM Tris pH 7.5, poly(dI:dC), room temperature. The following applies: label: 32P. An excerpt: The protein-DNA complexes were then resolved on a 4.5% native polyacrylamide gel and visualized by autoradiography.
(In EMSA bound probe runs differently from free probe, usually more slowly.)

Data set [1] deals with RARα 411/RXRα heterodimer (Homo sapiens, UniProt P10276;P19793 P10276:1-410,P19793:1-462, RARα stop codon introduced at amino acid 411). In words: EMSA; with GST-SMRT-IDII; impaired dissociation of SMRT by ATRA. To be noted: label: 32P.
RARα 411/RXRα heterodimer, sequence (P10276 1-410, change not shown, chain 1 of 2): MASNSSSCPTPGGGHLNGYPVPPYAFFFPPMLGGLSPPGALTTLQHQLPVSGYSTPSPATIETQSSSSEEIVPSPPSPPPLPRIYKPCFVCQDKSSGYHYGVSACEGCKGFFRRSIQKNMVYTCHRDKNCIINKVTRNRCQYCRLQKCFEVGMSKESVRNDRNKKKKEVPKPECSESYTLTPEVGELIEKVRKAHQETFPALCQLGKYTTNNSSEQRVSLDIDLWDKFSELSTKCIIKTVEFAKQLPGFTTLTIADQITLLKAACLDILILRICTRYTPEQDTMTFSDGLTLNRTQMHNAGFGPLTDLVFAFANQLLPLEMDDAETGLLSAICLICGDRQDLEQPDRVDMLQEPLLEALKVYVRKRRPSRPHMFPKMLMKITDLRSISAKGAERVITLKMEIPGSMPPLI
RARα 411/RXRα heterodimer, sequence (P19793 whole entry, change not shown, chain 2 of 2): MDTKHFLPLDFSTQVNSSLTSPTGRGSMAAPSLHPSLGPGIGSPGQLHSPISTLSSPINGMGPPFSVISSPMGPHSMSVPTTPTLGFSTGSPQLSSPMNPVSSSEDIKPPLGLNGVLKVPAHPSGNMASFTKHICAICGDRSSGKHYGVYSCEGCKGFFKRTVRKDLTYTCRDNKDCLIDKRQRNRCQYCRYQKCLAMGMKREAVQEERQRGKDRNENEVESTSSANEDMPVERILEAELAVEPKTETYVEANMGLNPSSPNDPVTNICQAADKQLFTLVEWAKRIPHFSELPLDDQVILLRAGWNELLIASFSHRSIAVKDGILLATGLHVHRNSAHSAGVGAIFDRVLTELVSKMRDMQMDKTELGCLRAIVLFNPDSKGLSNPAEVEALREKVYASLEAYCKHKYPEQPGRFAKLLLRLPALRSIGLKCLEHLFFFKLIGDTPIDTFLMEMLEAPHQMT

RARα/RXRα heterodimer, sequence (P10276 whole entry, chain 1 of 2): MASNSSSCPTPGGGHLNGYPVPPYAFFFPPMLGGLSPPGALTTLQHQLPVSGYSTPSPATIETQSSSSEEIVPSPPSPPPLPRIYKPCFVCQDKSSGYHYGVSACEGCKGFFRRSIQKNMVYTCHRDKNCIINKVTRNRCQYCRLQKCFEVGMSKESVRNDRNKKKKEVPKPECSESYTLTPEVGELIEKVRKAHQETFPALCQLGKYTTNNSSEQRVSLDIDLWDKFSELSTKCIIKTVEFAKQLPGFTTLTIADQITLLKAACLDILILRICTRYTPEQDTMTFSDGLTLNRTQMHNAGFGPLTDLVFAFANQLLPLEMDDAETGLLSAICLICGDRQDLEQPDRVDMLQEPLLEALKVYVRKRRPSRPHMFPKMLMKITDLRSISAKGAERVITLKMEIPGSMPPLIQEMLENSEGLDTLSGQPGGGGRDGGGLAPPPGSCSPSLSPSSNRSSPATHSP
RARα/RXRα heterodimer, sequence (P19793 whole entry, chain 2 of 2): as the sequence (P19793 whole entry, change not shown, chain 2 of 2) above

B1: DR5 retinoid response element (dsDNA)
DNA 1: TCGACTCAGGTCACCACGAGGTCAGAGTC
DNA 2: GACTCTGACCTCGTGGTGACCTGAGTCGA
B1: the binding result (in the data set with RARα/RXRα heterodimer; in data set [1]) was “binds” throughout.
